Data published in patent US20200131230A1 (published 2020).
Positions of bridges follow the written chain, without caps; N, C: chain ends. Non-standard residues stand in square brackets, D forms with d. 2Nal = N[C@@H](Cc1ccc2ccccc2c1)C(=O)O; Nle = CCCC[C@H](N)C(=O)O; 4CF = not defined here; DCF = not defined here; HF = not defined here

B1: Compound 29 (peptide)
peptide: {CH2CO}-[2Nal]ISGRNWVK[2Nal]VC-NH2
modifications: thioether N-12
SMILES: CC[C@H](C)[C@@H]1NC(=O)[C@H](Cc2ccc3ccccc3c2)NC(=O)CSC[C@@H](C(N)=O)NC(=O)[C@H](C(C)C)NC(=O)[C@H](Cc2ccc3ccccc3c2)NC(=O)[C@H](CCCCN)NC(=O)[C@H](C(C)C)NC(=O)[C@H](Cc2c[nH]c3ccccc23)NC(=O)[C@H](CC(N)=O)NC(=O)[C@H](CCCNC(=N)N)NC(=O)CNC(=O)[C@H](CO)NC1=O
B2: Compound 33 (peptide)
peptide: {CH2CO}-[2Nal]WSGRNWVKWVC-NH2
modifications: thioether N-12
SMILES: CC(C)[C@@H]1NC(=O)[C@H](Cc2c[nH]c3ccccc23)NC(=O)[C@H](CCCCN)NC(=O)[C@H](C(C)C)NC(=O)[C@H](Cc2c[nH]c3ccccc23)NC(=O)[C@H](CC(N)=O)NC(=O)[C@H](CCCNC(=N)N)NC(=O)CNC(=O)[C@H](CO)NC(=O)[C@H](Cc2c[nH]c3ccccc23)NC(=O)[C@H](Cc2ccc3ccccc3c2)NC(=O)CSC[C@@H](C(N)=O)NC1=O
B3: Compound 26 (peptide)
peptide: {CH2CO}-FISGRNW[Nle]KWVC-NH2
modifications: thioether N-12
SMILES: CCCC[C@@H]1NC(=O)[C@H](Cc2c[nH]c3ccccc23)NC(=O)[C@H](CC(N)=O)NC(=O)[C@H](CCCNC(=N)N)NC(=O)CNC(=O)[C@H](CO)NC(=O)[C@H]([C@@H](C)CC)NC(=O)[C@H](Cc2ccccc2)NC(=O)CSC[C@@H](C(N)=O)NC(=O)[C@H](C(C)C)NC(=O)[C@H](Cc2c[nH]c3ccccc23)NC(=O)[C@H](CCCCN)NC1=O
B4: Compound 27 (peptide)
peptide: {CH2CO}-[2Nal]FSGRNWVKWVC-NH2
modifications: thioether N-12
SMILES: CC(C)[C@@H]1NC(=O)[C@H](Cc2c[nH]c3ccccc23)NC(=O)[C@H](CCCCN)NC(=O)[C@H](C(C)C)NC(=O)[C@H](Cc2c[nH]c3ccccc23)NC(=O)[C@H](CC(N)=O)NC(=O)[C@H](CCCNC(=N)N)NC(=O)CNC(=O)[C@H](CO)NC(=O)[C@H](Cc2ccccc2)NC(=O)[C@H](Cc2ccc3ccccc3c2)NC(=O)CSC[C@@H](C(N)=O)NC1=O
B5: Compound 38 (peptide)
peptide: {CH2CO}-[2Nal]ISGRNW[Nle]KWVC-NH2
modifications: thioether N-12
SMILES: CCCC[C@@H]1NC(=O)[C@H](Cc2c[nH]c3ccccc23)NC(=O)[C@H](CC(N)=O)NC(=O)[C@H](CCCNC(=N)N)NC(=O)CNC(=O)[C@H](CO)NC(=O)[C@H]([C@@H](C)CC)NC(=O)[C@H](Cc2ccc3ccccc3c2)NC(=O)CSC[C@@H](C(N)=O)NC(=O)[C@H](C(C)C)NC(=O)[C@H](Cc2c[nH]c3ccccc23)NC(=O)[C@H](CCCCN)NC1=O
B6: Compound 31 (peptide)
peptide: {CH2CO}-[2Nal][4CF]SGRNWVKWVC-NH2
modifications: thioether N-12; reading uncertain
B7: Compound 32 (peptide)
peptide: {CH2CO}-[2Nal][HF]SGRNWVKWVC-NH2
modifications: thioether N-12; reading uncertain
B8: Compound 35 (peptide)
peptide: {CH2CO}-[2Nal]ISGRN[6CW]VKWVC-NH2
modifications: thioether N-12
B9: Compound 34 (peptide)
peptide: {CH2CO}-[DCF][2Nal]SGRNWVKWVC-NH2
modifications: thioether N-12; reading uncertain
B10: Compound 36 (peptide)
peptide: {CH2CO}-[2Nal]ISGRNWVK[6CW]VC-NH2
modifications: thioether N-12
B11: Compound 37 (peptide)
peptide: {CH2CO}-[2Nal]ISGRNWVKW[HF]C-NH2
modifications: thioether N-12; reading uncertain
B12: Compound 16 (peptide)
peptide: {CH2CO}-WISGKNWVKWVC-NH2
modifications: thioether N-12
SMILES: CC[C@H](C)[C@@H]1NC(=O)[C@H](Cc2c[nH]c3ccccc23)NC(=O)CSC[C@@H](C(N)=O)NC(=O)[C@H](C(C)C)NC(=O)[C@H](Cc2c[nH]c3ccccc23)NC(=O)[C@H](CCCCN)NC(=O)[C@H](C(C)C)NC(=O)[C@H](Cc2c[nH]c3ccccc23)NC(=O)[C@H](CC(N)=O)NC(=O)[C@H](CCCCN)NC(=O)CNC(=O)[C@H](CO)NC1=O
B13: Compound 25 (peptide)
peptide: {CH2CO}-[4CF]ISGRNWVKWVC-NH2
modifications: thioether N-12; reading uncertain
B14: Compound 23 (peptide)
peptide: {CH2CO}-WISGRTWVKWVC-NH2
modifications: thioether N-12
SMILES: CC[C@H](C)[C@@H]1NC(=O)[C@H](Cc2c[nH]c3ccccc23)NC(=O)CSC[C@@H](C(N)=O)NC(=O)[C@H](C(C)C)NC(=O)[C@H](Cc2c[nH]c3ccccc23)NC(=O)[C@H](CCCCN)NC(=O)[C@H](C(C)C)NC(=O)[C@H](Cc2c[nH]c3ccccc23)NC(=O)[C@H]([C@@H](C)O)NC(=O)[C@H](CCCNC(=N)N)NC(=O)CNC(=O)[C@H](CO)NC1=O
B15: Compound 17 (peptide)
peptide: {CH2CO}-FITGKNWVKWVC-NH2
modifications: thioether N-12
SMILES: CC[C@H](C)[C@@H]1NC(=O)[C@H](Cc2ccccc2)NC(=O)CSC[C@@H](C(N)=O)NC(=O)[C@H](C(C)C)NC(=O)[C@H](Cc2c[nH]c3ccccc23)NC(=O)[C@H](CCCCN)NC(=O)[C@H](C(C)C)NC(=O)[C@H](Cc2c[nH]c3ccccc23)NC(=O)[C@H](CC(N)=O)NC(=O)[C@H](CCCCN)NC(=O)CNC(=O)[C@H]([C@@H](C)O)NC1=O
B16: Compound 21 (peptide)
peptide: {CH2CO}-FISGKNWMRWVC-NH2
modifications: thioether N-12
SMILES: CC[C@H](C)[C@@H]1NC(=O)[C@H](Cc2ccccc2)NC(=O)CSC[C@@H](C(N)=O)NC(=O)[C@H](C(C)C)NC(=O)[C@H](Cc2c[nH]c3ccccc23)NC(=O)[C@H](CCCNC(=N)N)NC(=O)[C@H](CCSC)NC(=O)[C@H](Cc2c[nH]c3ccccc23)NC(=O)[C@H](CC(N)=O)NC(=O)[C@H](CCCCN)NC(=O)CNC(=O)[C@H](CO)NC1=O
B17: Compound 8 (peptide)
peptide: {CH2CO}-FRSGRNWVRWVC-NH2
modifications: thioether N-12
SMILES: CC(C)[C@@H]1NC(=O)[C@H](Cc2c[nH]c3ccccc23)NC(=O)[C@H](CCCNC(=N)N)NC(=O)[C@H](C(C)C)NC(=O)[C@H](Cc2c[nH]c3ccccc23)NC(=O)[C@H](CC(N)=O)NC(=O)[C@H](CCCNC(=N)N)NC(=O)CNC(=O)[C@H](CO)NC(=O)[C@H](CCCNC(=N)N)NC(=O)[C@H](Cc2ccccc2)NC(=O)CSC[C@@H](C(N)=O)NC1=O
B18: Compound 18 (peptide)
peptide: {CH2CO}-FISGKTWVKWVC-NH2
modifications: thioether N-12
SMILES: CC[C@H](C)[C@@H]1NC(=O)[C@H](Cc2ccccc2)NC(=O)CSC[C@@H](C(N)=O)NC(=O)[C@H](C(C)C)NC(=O)[C@H](Cc2c[nH]c3ccccc23)NC(=O)[C@H](CCCCN)NC(=O)[C@H](C(C)C)NC(=O)[C@H](Cc2c[nH]c3ccccc23)NC(=O)[C@H]([C@@H](C)O)NC(=O)[C@H](CCCCN)NC(=O)CNC(=O)[C@H](CO)NC1=O
B19: Compound 22 (peptide)
peptide: {CH2CO}-WISGKTWVRWVC-NH2
modifications: thioether N-12
SMILES: CC[C@H](C)[C@@H]1NC(=O)[C@H](Cc2c[nH]c3ccccc23)NC(=O)CSC[C@@H](C(N)=O)NC(=O)[C@H](C(C)C)NC(=O)[C@H](Cc2c[nH]c3ccccc23)NC(=O)[C@H](CCCNC(=N)N)NC(=O)[C@H](C(C)C)NC(=O)[C@H](Cc2c[nH]c3ccccc23)NC(=O)[C@H]([C@@H](C)O)NC(=O)[C@H](CCCCN)NC(=O)CNC(=O)[C@H](CO)NC1=O
B20: Compound 19 (peptide)
peptide: {CH2CO}-FISGKNWMKWVC-NH2
modifications: thioether N-12
SMILES: CC[C@H](C)[C@@H]1NC(=O)[C@H](Cc2ccccc2)NC(=O)CSC[C@@H](C(N)=O)NC(=O)[C@H](C(C)C)NC(=O)[C@H](Cc2c[nH]c3ccccc23)NC(=O)[C@H](CCCCN)NC(=O)[C@H](CCSC)NC(=O)[C@H](Cc2c[nH]c3ccccc23)NC(=O)[C@H](CC(N)=O)NC(=O)[C@H](CCCCN)NC(=O)CNC(=O)[C@H](CO)NC1=O
B21: Compound 20 (peptide)
peptide: {CH2CO}-WISGKTWVKWVC-NH2
modifications: thioether N-12
SMILES: CC[C@H](C)[C@@H]1NC(=O)[C@H](Cc2c[nH]c3ccccc23)NC(=O)CSC[C@@H](C(N)=O)NC(=O)[C@H](C(C)C)NC(=O)[C@H](Cc2c[nH]c3ccccc23)NC(=O)[C@H](CCCCN)NC(=O)[C@H](C(C)C)NC(=O)[C@H](Cc2c[nH]c3ccccc23)NC(=O)[C@H]([C@@H](C)O)NC(=O)[C@H](CCCCN)NC(=O)CNC(=O)[C@H](CO)NC1=O

What follows are binders tested against T1, Thrombospondin human platelet (Calbiochem, 605225) (human, UniProt P07996 19-1170) (assay: cell-based or functional assay).
T1 sequence (P07996 19-1170 limits assumed): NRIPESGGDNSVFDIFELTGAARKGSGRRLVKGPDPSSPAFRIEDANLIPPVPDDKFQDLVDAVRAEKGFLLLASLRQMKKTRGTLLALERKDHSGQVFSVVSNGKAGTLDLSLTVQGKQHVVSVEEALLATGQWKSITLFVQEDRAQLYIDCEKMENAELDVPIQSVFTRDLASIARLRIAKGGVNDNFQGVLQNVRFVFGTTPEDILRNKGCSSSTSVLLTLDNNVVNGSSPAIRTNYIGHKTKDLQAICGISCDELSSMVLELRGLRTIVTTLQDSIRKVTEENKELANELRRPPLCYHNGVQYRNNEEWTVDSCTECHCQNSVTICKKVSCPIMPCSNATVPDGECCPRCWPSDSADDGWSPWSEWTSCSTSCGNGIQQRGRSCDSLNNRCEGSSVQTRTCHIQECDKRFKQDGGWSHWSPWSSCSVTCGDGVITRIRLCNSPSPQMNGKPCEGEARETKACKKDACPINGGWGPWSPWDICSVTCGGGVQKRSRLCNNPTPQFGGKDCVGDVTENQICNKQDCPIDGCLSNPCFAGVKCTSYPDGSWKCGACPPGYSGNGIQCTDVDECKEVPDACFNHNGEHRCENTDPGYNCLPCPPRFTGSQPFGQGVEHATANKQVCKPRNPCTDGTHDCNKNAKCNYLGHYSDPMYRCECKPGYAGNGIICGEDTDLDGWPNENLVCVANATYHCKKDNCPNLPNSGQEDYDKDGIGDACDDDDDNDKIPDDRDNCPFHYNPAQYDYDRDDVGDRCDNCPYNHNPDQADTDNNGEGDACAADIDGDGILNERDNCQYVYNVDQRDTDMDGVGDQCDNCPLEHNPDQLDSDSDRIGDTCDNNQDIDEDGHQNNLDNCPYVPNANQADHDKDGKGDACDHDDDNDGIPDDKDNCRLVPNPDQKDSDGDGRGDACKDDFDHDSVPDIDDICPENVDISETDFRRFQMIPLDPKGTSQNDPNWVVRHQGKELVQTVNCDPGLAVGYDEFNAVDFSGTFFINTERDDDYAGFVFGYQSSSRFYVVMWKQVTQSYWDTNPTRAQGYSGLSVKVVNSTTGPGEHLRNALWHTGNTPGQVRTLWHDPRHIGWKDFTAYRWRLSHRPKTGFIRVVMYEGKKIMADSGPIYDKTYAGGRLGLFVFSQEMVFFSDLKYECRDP
In the case of B1, the “Cell adhesion IC50” value is reported as 17.6 nM.
In the case of B2, the “Cell adhesion IC50” value is reported as 20.7 nM.
For B3, the “Cell adhesion IC50” value was 7 nM.
B4 was tested, and the “Cell adhesion IC50” value was 32.8 nM.
In the case of B5, the “Cell adhesion IC50” value is reported as 9.2 nM.
With B6 the “Cell adhesion IC50” value was 32.5 nM.
With B7 the “Cell adhesion IC50” value was 25.9 nM.
In the case of B8, the “Cell adhesion IC50” value is reported as 26 nM.
B9 was tested, and the “Cell adhesion IC50” value was 28.1 nM.
B10 was tested, and the “Cell adhesion IC50” value was 17.2 nM.
B11 was tested, and the “Cell adhesion IC50” value was 19.6 nM.

Molecular target: T1, Thrombospondin human platelet …
Test: cell-based or functional assay
Remark: another data set of the same source
For B12, the “Cell adhesion IC50” value was 21 nM.
B13 was tested, and the “Cell adhesion IC50” value was 7.9 nM.
For B14, the “Cell adhesion IC50” value was 15.6 nM.
With B15 the “Cell adhesion IC50” value was 17.7 nM.
B16 was tested, and the “Cell adhesion IC50” value was 21.3 nM.
B17 was tested, and the “Cell adhesion IC50” value was 33.4 nM.
For B18, the “Cell adhesion IC50” value was 13 nM.
For B19, the “Cell adhesion IC50” value was 20.3 nM.
In the case of B20, the “Cell adhesion IC50” value is reported as 14.1 nM.
For B21, the “Cell adhesion IC50” value was 13.1 nM.
